According to patent publication US20260191981A1 (ARROWHEAD PHARMACEUTICALS, published 2026):

Assays:
[1] = target: T1, biotinylated hTfR1 (Acro Bio p/n TFR-H82E5) (human, UniProt P02786 89-760, biotinylated; site not stated); experiment: BLI, Octet RH16, biotinylated TfR1 on streptavidin sensor; Fab-siRNA conjugate
T1 construct: Bought reagent of the BLI assay
Procedure: Samples were analyzed via Bio-Layer Interferometry (BLI) to determine kinetics against human transferrin receptor 1 (hTfR1). Briefly, an Octet RH16 (Sartorius) was used for BLI measurements using streptavidin biosensors (Sartorius p/n 18-5019) to irreversibly immobilize biotinylated hTfR1 (Acro Bio p/n TFR-H82E5). […] Sample diluent was prepared in house and is composed of 10 mM PBS pH 7.4 (150 mM NaCl), 0.01% BSA, 0.002% Tween 20, and 0.01% kathon. A 96-well plate was used for analysis, filled with required samples solutions and a row of 10 μg/mL hTfR1 for loading of the streptavidin sensors. For each sample, one well was reserved for a reference sensor control (non-specific binding evaluation with no hTfR1 on surface in highest sample concentration) and a sample reference (buffer only on a hTfR1 loaded sample). One well was also reserved for a second replicate of one of the five concentrations to evaluate sensor and method variability. Eight channels were used for the highest sensitivity offered by the Octet RH16. For each assay performed, the steps were as follows: a sensor check for baseline evaluation of sensor alone in buffer was performed for 30 seconds, followed by loading of the cTfR1 for 60 seconds, then a baseline check for 90 seconds to verify stability of cTfR1 immobilized to sensor surface, then sample association for 180 seconds, and finally sample dissociation for 300 seconds. A shake speed of 1000 was used for all steps. Sample results are analyzed in Octet Analysis software.

[2] = target: T2, biotinylated cTfR1 (Acro Bio p/n TFR-C8249) (cynomolgus monkey, UniProt H9EXL1 89-760 (rhesus entry), biotinylated; site not stated); experiment: as above
T2 construct: Bought reagent of the BLI assay
T2 sequence (chain, as listed by the source): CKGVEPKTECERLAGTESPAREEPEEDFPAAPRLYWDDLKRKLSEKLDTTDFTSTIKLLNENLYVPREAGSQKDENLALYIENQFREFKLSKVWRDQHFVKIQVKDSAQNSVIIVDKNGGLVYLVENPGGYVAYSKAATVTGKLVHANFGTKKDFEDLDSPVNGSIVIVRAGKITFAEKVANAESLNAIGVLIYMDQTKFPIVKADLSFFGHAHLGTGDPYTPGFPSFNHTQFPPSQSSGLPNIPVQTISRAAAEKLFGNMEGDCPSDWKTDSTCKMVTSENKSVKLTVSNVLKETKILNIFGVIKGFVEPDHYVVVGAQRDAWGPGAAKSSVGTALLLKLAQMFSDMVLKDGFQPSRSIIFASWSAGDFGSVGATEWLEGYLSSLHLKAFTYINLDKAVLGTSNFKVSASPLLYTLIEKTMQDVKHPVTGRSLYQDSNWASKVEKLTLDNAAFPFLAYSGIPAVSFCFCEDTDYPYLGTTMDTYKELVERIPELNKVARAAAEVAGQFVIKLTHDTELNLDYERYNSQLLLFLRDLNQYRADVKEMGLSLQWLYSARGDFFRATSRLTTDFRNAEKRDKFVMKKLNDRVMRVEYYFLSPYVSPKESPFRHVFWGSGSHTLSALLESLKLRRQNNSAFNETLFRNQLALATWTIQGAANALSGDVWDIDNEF
Procedure: Samples were analyzed via Bio-Layer Interferometry (BLI) to determine kinetics against cynomolgus monkey transferrin receptor 1 (cTfR1). Briefly, an Octet RH16 (Sartorius) was used for BLI measurements using streptavidin biosensors (Sartorius p/n 18-5019) to irreversibly immobilize biotinylated cTfR1 (Acro Bio p/n TFR-C8249). […] Sample diluent was prepared in house and is composed of 10 mM PBS pH 7.4 (150 mM NaCl), 0.01% BSA, 0.002% Tween 20, and 0.01% kathon. A 96-well plate was used for analysis, filled with required samples solutions and a row of 10 μg/mL cTfR1 for loading of the streptavidin sensors. For each sample, one well was reserved for a reference sensor control (non-specific binding evaluation with no cTfR1 on surface in highest sample concentration) and a sample reference (buffer only on a cTfR1 loaded sample). One well was also reserved for a second replicate of one of the five concentrations to evaluate sensor and method variability. Eight channels were used for the highest sensitivity offered by the Octet RH16. For each assay performed, the steps were as follows: a sensor check for baseline evaluation of sensor alone in buffer was performed for 30 seconds, followed by loading of the cTfR1 for 60 seconds, then a baseline check for 90 seconds to verify stability of cTfR1 immobilized to sensor surface, then sample association for 180 seconds, and finally sample dissociation for 300 seconds. A shake speed of 1000 was used for all steps. Sample results were analyzed in Octet Analysis software.

T1 sequence (P02786 89-760 limits assumed): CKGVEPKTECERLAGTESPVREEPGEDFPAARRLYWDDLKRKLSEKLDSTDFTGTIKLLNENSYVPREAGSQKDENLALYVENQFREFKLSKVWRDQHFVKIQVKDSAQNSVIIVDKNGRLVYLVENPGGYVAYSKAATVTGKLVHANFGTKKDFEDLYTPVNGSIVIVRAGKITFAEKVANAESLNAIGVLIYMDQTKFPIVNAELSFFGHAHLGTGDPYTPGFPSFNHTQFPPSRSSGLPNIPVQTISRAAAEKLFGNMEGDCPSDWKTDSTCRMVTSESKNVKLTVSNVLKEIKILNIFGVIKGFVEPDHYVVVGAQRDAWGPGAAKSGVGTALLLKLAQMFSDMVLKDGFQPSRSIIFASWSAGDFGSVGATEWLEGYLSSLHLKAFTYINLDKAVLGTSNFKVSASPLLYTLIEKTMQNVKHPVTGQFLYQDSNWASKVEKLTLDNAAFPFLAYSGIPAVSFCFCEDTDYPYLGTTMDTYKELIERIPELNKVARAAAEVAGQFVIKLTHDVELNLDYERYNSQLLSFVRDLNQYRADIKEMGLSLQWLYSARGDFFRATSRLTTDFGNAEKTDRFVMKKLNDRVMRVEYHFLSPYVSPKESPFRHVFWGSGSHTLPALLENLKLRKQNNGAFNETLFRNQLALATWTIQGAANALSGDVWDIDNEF

Binder	Kd [1]	koff [1]	kon [1]	Kd [2]	koff [2]	kon [2]
Fab0061-siRNA conjugate (Fab, V domains shown, siRNA-linker on a reduced cysteine; chain and residue not stated, also called Fab0061 (BLI conjugate columns)) VH: EVQLVESGGGLVQPGGSLRLSCATSGYTFTSYWMHWVRQAPGKGLEWVAEINPTNGRVNYIEKFKSRITLSVDKSKSTVYLQMNSLRAEDTAVYYCARGTRAYHYWGQGTLVTVSS VL: DIQLTQSPSSLSASVGDRVTITCRASDGLYSNLAWYQQKPGKAPKLLIYDATKLASGVPSRFSGSGSGTDYTLTISSLQPEDFATYYCQHFWGTPLTFGQGTKVEIKR	1.9 nM	0.000527 s⁻¹	278000 M⁻¹ s⁻¹	6.85 nM	0.0017 s⁻¹	248000 M⁻¹ s⁻¹
Fab0066-siRNA conjugate (Fab, V domains shown, siRNA-linker on a reduced cysteine; chain and residue not stated, also called Fab0066 (BLI conjugate columns)) VH: EVQLVESGGGLVQPGGSLRLSCATSGYTFTSYWVHWVRQAPGKGLEWVAEINPTNGRVNYIEKFKSRITLSVDKSKSTVYLQMNSLRAEDTAVYYCARGTRAYHYWGQGTLVTVSS VL: DIQLTQSPSSLSASVGDRVTITCRASDGLYSNLAWYQQKPGKAPKLLIYDAFNLASGVPSRFSGSGSGTDYTLTISSLQPEDFATYYCQHFWGTPLTFGQGTKVEIKR	1.81 nM	0.000469 s⁻¹	259000 M⁻¹ s⁻¹	10 nM	0.00335 s⁻¹	334000 M⁻¹ s⁻¹
Fab0064-siRNA conjugate (Fab, V domains shown, siRNA-linker on a reduced cysteine; chain and residue not stated, also called Fab0064 (BLI conjugate columns)) VH: EVQLVESGGGLVQPGGSLRLSCATSGYTFTSYWMHWVRQAPGKGLEWVAEINPTNGRVNYIEKFKSRITLSVDKSKSTVYLQMNSLRAEDTAVYYCARGTRAYHYWGQGTLVTVSS VL: DIQLTQSPSSLSASVGDRVTITCRASDGLYSNLAWYQQKPGKAPKLLIYDAKNLASGVPSRFSGSGSGTDYTLTISSLQPEDFATYYCQHFWGTPLTFGQGTKVEIKR	1.44 nM	0.000393 s⁻¹	273000 M⁻¹ s⁻¹	5.96 nM	0.0019 s⁻¹	319000 M⁻¹ s⁻¹
Fab0071-siRNA conjugate (Fab, V domains shown, siRNA-linker on a reduced cysteine; chain and residue not stated, also called Fab0071 (BLI conjugate columns)) VH: EVQLVESGGGLVQPGGSLRLSCATSGYTFNSYWMHWVRQAPGKGLEWVAEINPTNGRTNYIEKFKSRITLSVDKSKSTVYLQMNSLRAEDTAVYYCARGTRAYHYWGQGTLVTVSS VL: DIQLTQSPSSLSASVGDRVTITCRASDGLYSNLAWYQQKPGKAPKLLIYDARNLASGVPSRFSGSGSGTDYTLTISSLQPEDFATYYCQHFWGTPLTFGQGTKVEIKR	2.67 nM	0.000716 s⁻¹	268000 M⁻¹ s⁻¹	18.1 nM	0.00429 s⁻¹	234000 M⁻¹ s⁻¹
Fab0067-siRNA conjugate (Fab, V domains shown, siRNA-linker on a reduced cysteine; chain and residue not stated, also called Fab0067 (BLI conjugate columns)) VH: EVQLVESGGGLVQPGGSLRLSCATSGYTFTSYWVHWVRQAPGKGLEWVAEINPTNGRTNYIEKFKSRITLSVDKSKSTVYLQMNSLRAEDTAVYYCARGTRAYHYWGQGTLVTVSS VL: DIQLTQSPSSLSASVGDRVTITCRASDNLYRNLAWYQQKPGKAPKLLIYDATKLASGVPSRFSGSGSGTDYTLTISSLQPEDFATYYCQHFWGTPLTFGQGTKVEIKR	0.623 nM	0.000167 s⁻¹	268000 M⁻¹ s⁻¹	5.02 nM	0.0019 s⁻¹	378000 M⁻¹ s⁻¹
Fab0069-siRNA conjugate (Fab, V domains shown, siRNA-linker on a reduced cysteine; chain and residue not stated, also called Fab0069 (BLI conjugate columns)) VH: EVQLVESGGGLVQPGGSLRLSCATSGYTFTSYWVHWVRQAPGKGLEWVAEINPTNGRSNYIEKFKSRITLSVDKSKSTVYLQMNSLRAEDTAVYYCARGTRAYHYWGQGTLVTVSS VL: DIQLTQSPSSLSASVGDRVTITCRASDGLYSNLAWYQQKPGKAPKLLIYDATKLASGVPSRFSGSGSGTDYTLTISSLQPEDFATYYCQHFWGTPLTFGQGTKVEIKR	5.45 nM	0.00164 s⁻¹	301000 M⁻¹ s⁻¹	9.58 nM	0.00245 s⁻¹	256000 M⁻¹ s⁻¹
Fab0063-siRNA conjugate (Fab, V domains shown, siRNA-linker on a reduced cysteine; chain and residue not stated, also called Fab0063 (BLI conjugate columns)) VH: EVQLVESGGGLVQPGGSLRLSCATSGYTFTSYWMHWVRQAPGKGLEWVAEINPTNGRVNYIEKFKSRITLSVDKSKSTVYLQMNSLRAEDTAVYYCARGTRAYHYWGQGTLVTVSS VL: DIQLTQSPSSLSASVGDRVTITCRASDGLYSNLAWYQQKPGKAPKLLIYDATRLASGVPSRFSGSGSGTDYTLTISSLQPEDFATYYCQHFWGTPLTFGQGTKVEIKR	2.72 nM	0.000775 s⁻¹	285000 M⁻¹ s⁻¹	8.37 nM	0.0022 s⁻¹	263000 M⁻¹ s⁻¹
Fab0068-siRNA conjugate (Fab, V domains shown, siRNA-linker on a reduced cysteine; chain and residue not stated, also called Fab0068 (BLI conjugate columns)) VH: EVQLVESGGGLVQPGGSLRLSCATSGYTFTSYWVHWVRQAPGKGLEWVAEINPTNGRVNYIEKFKSRITLSVDKSKSTVYLQMNSLRAEDTAVYYCARGTRAYHYWGQGTLVTVSS VL: DIQLTQSPSSLSASVGDRVTITCRASDGLYSNLAWYQQKPGKAPKLLIYDATKLASGVPSRFSGSGSGTDYTLTISSLQPEDFATYYCQHFWGTPLTFGQGTKVEIKR	1.69 nM	0.000432 s⁻¹	256000 M⁻¹ s⁻¹	8.89 nM	0.00221 s⁻¹	249000 M⁻¹ s⁻¹
Fab0070-siRNA conjugate (Fab, V domains shown, siRNA-linker on a reduced cysteine; chain and residue not stated, also called Fab0070 (BLI conjugate columns)) VH: EVQLVESGGGLVQPGGSLRLSCATSGFTFTSYWMHWVRQAPGKGLEWVAEINPTNGRTNYIEKFKSRITLSVDKSKSTVYLQMNSLRAEDTAVYYCARGTRAYHYWGQGTLVTVSS VL: DIQLTQSPSSLSASVGDRVTITCRASDKLYSNLAWYQQKPGKAPKLLIYDATLLASGVPSRFSGSGSGTDYTLTISSLQPEDFATYYCQHFWGTPLTFGQGTKVEIKR	3.71 nM	0.000974 s⁻¹	263000 M⁻¹ s⁻¹	16.9 nM	0.00413 s⁻¹	244000 M⁻¹ s⁻¹
Fab0065-siRNA conjugate (Fab, V domains shown, siRNA-linker on a reduced cysteine; chain and residue not stated, also called Fab0065 (BLI conjugate columns)) VH: EVQLVESGGGLVQPGGSLRLSCATSGYTFTSYWVHWVRQAPGKGLEWVAEINPTNGRSNYIEKFKSRITLSVDKSKSTVYLQMNSLRAEDTAVYYCARGTRAYHYWGQGTLVTVSS VL: DIQLTQSPSSLSASVGDRVTITCRASDNLYRNLAWYQQKPGKAPKLLIYDATKLASGVPSRFSGSGSGTDYTLTISSLQPEDFATYYCQHFWGTPLTFGQGTKVEIKR	2.64 nM	0.00082 s⁻¹	310000 M⁻¹ s⁻¹	5.63 nM	0.0013 s⁻¹	231000 M⁻¹ s⁻¹
Fab0060-siRNA conjugate (Fab, V domains shown, siRNA-linker on a reduced cysteine; chain and residue not stated, also called Fab0060 (BLI conjugate columns)) VH: EVQLVESGGGLVQPGGSLRLSCATSGYTFTSYWVHWVRQAPGKGLEWVAEINPTNGRTNYIEKFKSRITLSVDKSKSTVYLQMNSLRAEDTAVYYCARGTRAYHYWGQGTLVTVSS VL: DIQLTQSPSSLSASVGDRVTITCRASDGLYSNLAWYQQKPGKAPKLLIYDATKLASGVPSRFSGSGSGTDYTLTISSLQPEDFATYYCQHFWGTPLTFGQGTKVEIKR	3.65 nM	0.00109 s⁻¹	298000 M⁻¹ s⁻¹	9.11 nM	0.00252 s⁻¹	276000 M⁻¹ s⁻¹
Fab0062-siRNA conjugate (Fab, V domains shown, siRNA-linker on a reduced cysteine; chain and residue not stated, also called Fab0062 (BLI conjugate columns)) VH: EVQLVESGGGLVQPGGSLRLSCATSGYTFTSYWMHWVRQAPGKGLEWVAEINPTNGRVNYIEKFKSRITLSVDKSKSTVYLQMNSLRAEDTAVYYCARGTRAYHYWGQGTLVTVSS VL: DIQLTQSPSSLSASVGDRVTITCRASDGLYSNLAWYQQKPGKAPKLLIYDAFNLASGVPSRFSGSGSGTDYTLTISSLQPEDFATYYCQHFWGTPLTFGQGTKVEIKR	4.47 nM	0.00123 s⁻¹	275000 M⁻¹ s⁻¹	11 nM	0.00263 s⁻¹	238000 M⁻¹ s⁻¹
